# Target: T1, S. cerevisiae elongation factor eEF2 (C-terminally His6-tagged), bound with GDP and sordarin (S. cerevisiae, UniProt P32324 1-842, diphthamide at 699)
# T1 construct: elongation factor 2 (eEF2), S. cerevisiae; residue numbers as in S. cerevisiae eEF2 (H108, H583, H694, Diph699); Complex assembled with eEF2•GTP and sordarin; also called eukaryotic elongation factor 2; translocase; source: yeast TKY675 cells, purified (Ni-NTA, SP Sepharose cation exchange, Superdex 200)
# Assay: cryo-EM structure; 80S•TSV IRES•eEF2•GDP•sordarin complex, five structures (I-V) from one specimen; assembled from 40S (0.8 uM), 60S (0.8 uM), TSV IRES RNA (8 uM), eEF2 (5 uM), sordarin (800 uM), GTP (1 mM); 30°C; 45 mM HEPES·KOH pH 7.5, 10 mM MgCl2, 100 mM KCl, 2.5 mM spermine, 2 mM β-mercaptoethanol
# Details: both partners purified
# T1 sequence (P32324 whole entry): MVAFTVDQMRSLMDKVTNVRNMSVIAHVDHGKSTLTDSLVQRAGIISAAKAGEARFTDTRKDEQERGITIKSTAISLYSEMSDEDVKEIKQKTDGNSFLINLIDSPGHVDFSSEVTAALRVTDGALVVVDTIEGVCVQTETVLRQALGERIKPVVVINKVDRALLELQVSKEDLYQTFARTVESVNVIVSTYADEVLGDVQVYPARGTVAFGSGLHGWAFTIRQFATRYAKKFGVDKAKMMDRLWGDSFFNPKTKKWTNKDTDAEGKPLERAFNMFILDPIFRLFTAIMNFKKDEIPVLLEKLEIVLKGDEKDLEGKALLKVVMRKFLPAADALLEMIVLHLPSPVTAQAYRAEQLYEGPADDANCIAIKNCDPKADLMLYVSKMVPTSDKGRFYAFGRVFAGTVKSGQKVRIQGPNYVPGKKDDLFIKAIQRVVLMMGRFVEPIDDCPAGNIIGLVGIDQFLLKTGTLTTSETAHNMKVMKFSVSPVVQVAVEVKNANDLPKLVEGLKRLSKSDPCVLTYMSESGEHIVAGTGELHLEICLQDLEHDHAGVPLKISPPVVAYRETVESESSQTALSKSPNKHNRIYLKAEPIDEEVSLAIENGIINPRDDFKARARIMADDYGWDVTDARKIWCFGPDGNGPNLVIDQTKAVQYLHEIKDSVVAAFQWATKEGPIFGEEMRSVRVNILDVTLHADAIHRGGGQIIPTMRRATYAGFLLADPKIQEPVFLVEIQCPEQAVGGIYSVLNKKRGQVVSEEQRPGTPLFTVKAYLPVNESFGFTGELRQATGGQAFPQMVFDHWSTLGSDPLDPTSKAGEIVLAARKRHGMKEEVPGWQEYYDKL
binder,measurement,value
"ribosomal protein P0 of the S. cerevisiae 60S subunit (P stalk) (natural protein, UniProt P05317 1-312, looked up, 60S acidic ribosomal protein P0 (uL10), S. cerevisiae; part of the P stalk of the 60S subunit; Stood in the assay as a subunit of the 60S ribosomal subunit within the 80S ribosome, not as an isolated protein; also called eukaryote-specific protein P0; source: endogenous, in 60S subunits from 80S ribosomes purified from S. cerevisiae strain W303) MGGIREKKAEYFAKLREYLEEYKSLFVVGVDNVSSQQMHEVRKELRGRAVVLMGKNTMVRRAIRGFLSDLPDFEKLLPFVKGNVGFVFTNEPLTEIKNVIVSNRVAAPARAGAVAPEDIWVRAVNTGMEPGKTSFFQALGVPTKIARGTIEIVSDVKVVDAGNKVGQSEASLLNLLNISPFTFGLTVVQVYDNGQVFPSSILDITDEELVSHFVSAVSTIASISLAIGYPTLPSVGHTLINNYKDLLAVAIAASYHYPEIEDLVDRIENPEKYAAAAPAATSAASGDAAPAEEAAAEEEEESDDDMGFGLFD",binding result,binds
